US20060030530A1

Assays:
[1] = target: endogenous human LSR of PLC hepatoma cells (human) (UniProt Q86X29); assay: cell-based or functional assay
[2] = target: human LSR α′ subunit expressed in CHO-K1 cells (human) (UniProt Q86X29); assay: cell-based or functional assay
[3] = target: human LSR α′ subunit expressed in CHO-K1 cells (human) (UniProt Q86X29); assay: cell-associated ^125I-leptin on CHO-K1 cells stably expressing LSR α′, 37° C., 2 h; Lineweaver-Burk transformation (FIG. 3C, inset)

Chain of endogenous human LSR of PLC hepatoma cells (human) (Q86X29 whole entry): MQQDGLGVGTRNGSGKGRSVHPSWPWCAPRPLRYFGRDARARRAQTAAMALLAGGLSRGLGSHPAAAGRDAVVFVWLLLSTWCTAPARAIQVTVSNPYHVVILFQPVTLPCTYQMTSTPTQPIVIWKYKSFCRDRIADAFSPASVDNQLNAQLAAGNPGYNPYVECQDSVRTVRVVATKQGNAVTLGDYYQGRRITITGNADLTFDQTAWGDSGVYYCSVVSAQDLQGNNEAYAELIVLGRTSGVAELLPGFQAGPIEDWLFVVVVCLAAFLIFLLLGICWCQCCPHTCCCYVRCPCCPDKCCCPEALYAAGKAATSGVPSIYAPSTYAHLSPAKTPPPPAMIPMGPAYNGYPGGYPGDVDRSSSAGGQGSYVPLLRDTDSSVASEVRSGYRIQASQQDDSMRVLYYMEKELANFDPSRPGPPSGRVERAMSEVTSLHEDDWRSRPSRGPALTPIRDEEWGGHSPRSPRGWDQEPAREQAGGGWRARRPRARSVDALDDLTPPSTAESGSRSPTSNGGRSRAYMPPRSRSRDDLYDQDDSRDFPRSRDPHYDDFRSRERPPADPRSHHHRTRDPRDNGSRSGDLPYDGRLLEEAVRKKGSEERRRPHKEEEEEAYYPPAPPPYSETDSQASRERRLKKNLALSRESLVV
Chain of human LSR α′ subunit expressed in CHO-K1 cells (human) (Q86X29 whole entry): as above

Substance | acute leptin stimulation of oleate-induced ^125I-LDL binding in PLC cells preincubated 24 h with 200 ng/mL leptin: leptin concentration giving the maximal effect [1] | acute leptin stimulation of oleate-induced ^125I-LDL binding in PLC cells preincubated 24 h with 200 ng/mL leptin: reduction of the maximal effect [1] | oleate-induced LSR binding uptake and degradation of ^125I-LDL in PLC cells [1] | ^125I-leptin degradation by PLC cells (TCA-soluble chloroform-insoluble products) [1] | ^125I-leptin degraded relative to that bound and internalized [2] | Kd [3]
recombinant human leptin (from UniProt P41159 22-167) (ligand) | 100 ng/mL | 50% | > 10 ng/mL |  |  | 
^125I-leptin (species not stated) (ligand) |  |  |  | > 10 ng/mL | 16% | 1.3 nM
